According to patent US20220064302A1 (GIGAGEN, published 2022):

B1: A12 (antibody, V domains shown)
VH: QVQLVESGGGVVQPGRSLRLSCAASGFTFSSYGMHWVRQAPGKGLEWVAVIWYDGSNKYYADSVKGRFTISRDNSKNTLYLQMNSLRAEDSAVYYCVCNPFDYWGQGTLVTVSS
VL: DIQMTQSPSSLSASVGDRVTVTCRSSQGIAHYLAWYQQKPGKVPKVLLYAASTLQSGVPSRFSGSGSGTDFTLTISSLQPEDVATYYCQKYNSAPYTFGQGTKLEIK
notes: Tested as full-length mAb expressed in CHO cells; also called antibody A12; L12H12
B2: A13 (antibody, V domains shown)
VH: QVQLVQSGAEVKKPGASVKVSCKASGYTFTTYGISWVRQAPGQGLEWMGWISAHNGNTNYAQKFQGRVTMTTDTSTSTAYMELRSLRSDDTAVYYCVRDGAVADYYYGMDVWGQGTTVTVSS
VL: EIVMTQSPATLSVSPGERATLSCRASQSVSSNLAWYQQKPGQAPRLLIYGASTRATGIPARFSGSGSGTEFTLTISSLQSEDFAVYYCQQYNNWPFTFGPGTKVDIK
notes: Tested as full-length mAb expressed in CHO cells; also called antibody A13; L13H13
B3: A15 (antibody, V domains shown)
VH: QVQLQESGPGLVKPSETLSLTCTVSGGSISSYYWSWIRQPPGKGLEWIGYIYYSGSTNYNPSLKSRVTISEDTSKNQFSLKLSSVTAADTAVYYCARDEGATFFDYWGQGTLVTVSS
VL: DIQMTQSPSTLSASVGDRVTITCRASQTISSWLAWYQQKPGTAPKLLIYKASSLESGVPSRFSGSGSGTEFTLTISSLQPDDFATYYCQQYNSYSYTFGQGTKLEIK
notes: Tested as full-length mAb expressed in CHO cells; also called antibody 15; L15H15
B4: A18 (antibody, V domains shown)
VH: QVQLVQSGTEVKKPGASVKVSCQASGYTFTSYDISWVRRAPGQGLEWMGWISAYNGNTNYAQKLQGRVTLTTDTSTSTAYMELRSLRSDDTAVYYCARRYYDILTEGGYYYVLDVWGQGTTVTVSS
VL: AIRMTQSPSSFSASTGDRVTITCRASQGISSYLAWYQQKPGKAPTLLIYAASTLQSGVPSRFSGSGSGTDFTLTISCLQSEDFATYYCQQYYSDPPTFGQGTKVEIK
notes: Tested as full-length mAb expressed in CHO cells; also called antibody 18; L18H18
B5: A20 (antibody, V domains shown)
VH: EVQLVESGGGLVQPGGSLRLSCAASGFTFSFYDMHWVRQAKGKGLEWVSAIGTAGDTYYPGSVKGRFTISRENAKNSLYLQMNSLRAGDTAVYYCARGYCSTTNCFADYFDYWGQGTLVTVSS
VL: DIQLTQSPSFLSASVGDRVTITCRASQGISNYLAWYQQKPGKAPKLLIYAASTLQSGVPSRFSGSGSGTEFTLTISSLQPEDFATYYCHQLNSFPLTFGGGTKVEIK
notes: Tested as full-length mAb expressed in CHO cells; also called antibody 20; L20H20
B6: A21 (antibody, V domains shown)
VH: QVQLVQSGAEVKKPGASVKVSCKASGYTFTSYYMHWVRQAPGQGLEWMGIINPSGSSTSYAQKFQGRVTMTRDTSTSTVYMELSSLRSEDTAVYYCARYGVWGSYRSLDYWGQGTLVTVSS
VL: AIQMTQSPSSLSASVGDRVTITCRASQGIRNELGWYQQKPGKAPKLLICAASSLQSGVPSRFSGSGSGTDFTLTISSLQPEDFATYYCLQDYIYPYTFGQGTKLEIK
notes: Tested as full-length mAb expressed in CHO cells; also called antibody 21; L21H21
B7: A22 (antibody, V domains shown)
VH: QVQLVESGGGVVQPGRSLRLSCAASGFTFSNYGMHWVRQAPGKGLEWVAVIWYDGSNKYYADSVKGRFTISRDNSKNTLYLQMNSLRAEDTAVYYCARLYYYDSSGYYPDAFDIWGQGTMVTVSS
VL: DIQMTQSPSSLSASVGDRVTITCRASQGIRNDLGWYQQKPGKAPKRLIYAASSLQSGVPSRFSGSGSGTEFTLTISSLQPEDFATYYCLQHNSYPFTFGPGTKVEIK
notes: Tested as full-length mAb expressed in CHO cells; also called antibody 22; L22H22
B8: A25 (antibody, V domains shown)
VH: QVQLVESGGGVVQPGRSLRLSCAASGFTFSSYGMHWVRQAPGKGLEWVGVIWYDGSIKYYADSVKGRFTISRDNSMNTLNLQMNSLRAEDTAVYYCAGDILTGSFDYWGQGTLVTVSS
VL: EIVLTQSPATLSLSPGERATLSCRASQSVSSYLAWYQQKPGQAPRLLIYDASNRATGIPARFSGSGSGTDFTLTISSLEPEDFAVYYCQQRNNWPYTFGQGTKLEIK
notes: Tested as full-length mAb expressed in CHO cells; also called antibody 25; L25H25

Each binder was assayed against PD-1 expressed on cells (human, UniProt Q15116 25-288) (assay: cell-based or functional assay).
Sequence of PD-1 expressed on cells (Q15116 25-288 limits assumed): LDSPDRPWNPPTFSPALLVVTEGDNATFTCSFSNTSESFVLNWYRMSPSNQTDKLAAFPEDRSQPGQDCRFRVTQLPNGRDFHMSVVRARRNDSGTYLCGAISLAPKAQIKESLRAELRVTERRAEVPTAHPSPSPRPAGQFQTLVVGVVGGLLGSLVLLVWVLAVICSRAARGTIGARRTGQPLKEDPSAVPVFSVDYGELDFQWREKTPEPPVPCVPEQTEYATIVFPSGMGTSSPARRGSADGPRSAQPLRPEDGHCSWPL

Row | Binder | PD-1/PD-L1 blockage (IC50, µg/ml) [µg/mL]
1 | B1 | 3.16

Each binder was assayed against T1, human PD-1 (soluble PD-1 protein, R&D Systems) (human, UniProt Q15116 25-170, limits assumed) (assay: BLI, mAb on AHC biosensor, PD-1 as analyte).
T1 construct: the kinetics paragraphs say only 'PD-1' / 'antigen'; also called hPD-1; soluble PD-1 immunogen
Description: The binding specificity and affinity of each full-length antibody towards PD-1 were determined using BLI and/or SPR. […] Anti-cyno PD-1 affinity was measured using BLI.
(§1) For BLI, antibodies were loaded onto an Anti-Human IgG Fc (AHC) biosensor using the Octet Red96 system (ForteBio). Loaded biosensors were dipped into antigen dilutions beginning at 300 nM, with 6 serial dilutions at 1:3. Kinetic analysis was performed using a 1:1 binding model and global fitting.

T1 sequence (Q15116 25-170 limits assumed): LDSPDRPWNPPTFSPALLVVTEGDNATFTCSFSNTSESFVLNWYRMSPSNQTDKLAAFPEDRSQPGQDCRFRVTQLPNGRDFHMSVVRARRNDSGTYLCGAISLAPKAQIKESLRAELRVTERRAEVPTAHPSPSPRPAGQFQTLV

Row | Binder | Kd [nM]
2 | B1 | 5.1
3 | B2 | 86.7
4 | B3 | 8.3
5 | B4 | 18.4
6 | B5 | 148
7 | B6 | 13
8 | B7 | 412
9 | B8 | 792

Each binder was assayed against T1, human PD-1 (soluble PD-1 protein, R&D …) (assay: BLI (ForteBio), mAb on AHC biosensor, PD-1 as analyte).
Description: as §1

Row | Binder | Kd [nM] | koff [s⁻¹] | kon [M⁻¹ s⁻¹]
10 | B1 | 5.05 | 0.000516 | 102000
11 | B2 | 86.7 | 0.00294 | 33900
12 | B3 | 8.32 | 0.00195 | 235000
13 | B4 | 18.4 | 0.00228 | 124000
14 | B5 | 148 | 0.00191 | 13000
15 | B6 | 13 | 0.00142 | 110000
16 | B7 | 412 | 0.00667 | 16200
17 | B8 | 792 | 0.0579 | 73100
